What was measured:
Experiment in all cases: cell-based or functional assay
[1] = target: in-frame fusion between the extracellular domain of 2KIRDL3 (KIR2DL3) and the cytoplasmic ITIM motif of NKIR (pCXND3KIR58NKIR313), expressed in Jurkat cells (human) (UniProt P43628)
[2] = target: CD8-KIR fusion protein (extracellular domain of CD8 alpha chain fused to the cytoplasmic ITIM motif of KIR; pCXND3CD8KIRfull), expressed in F11 Jurkat reporter cells (human) (UniProt P01732)
[3] = target: CD8-NKIR fusion protein (extracellular domain of CD8 alpha chain fused to the cytoplasmic ITIM motif of NKIR; pCXND3CD8NKIRfull), expressed in F11 Jurkat reporter cells (human) (UniProt P01732)

Sequence of UniProt P43628 (P43628 other isoform, or with tags, fused parts or gaps limits assumed): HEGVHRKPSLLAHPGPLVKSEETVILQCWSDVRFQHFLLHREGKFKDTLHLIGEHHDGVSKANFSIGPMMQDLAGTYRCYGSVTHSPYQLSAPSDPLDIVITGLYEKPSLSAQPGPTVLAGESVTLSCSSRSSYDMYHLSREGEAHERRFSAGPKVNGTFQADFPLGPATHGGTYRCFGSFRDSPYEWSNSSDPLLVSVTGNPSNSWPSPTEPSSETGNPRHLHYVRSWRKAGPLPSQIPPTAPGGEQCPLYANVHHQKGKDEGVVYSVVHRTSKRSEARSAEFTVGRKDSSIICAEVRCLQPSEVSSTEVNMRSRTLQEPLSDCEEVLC

Row | Substance | inhibition of luciferase activity (NFAT-luciferase reporter, anti-CD3 stimulated chimeraA10ZEOR12 cells, GL183 1 µg/ml then rat anti-mouse IgG cross-linking) [1] [%] | degree of reduction of luciferase reporter activity (NFAT-luciferase, 10-hour ConA stimulation, LT8 1.5 µg/ml) [2] [%] | degree of reduction of luciferase reporter activity (NFAT-luciferase, 10-hour ConA stimulation, LT8 1.5 µg/ml; clone NKIR#16) [3] [%] | degree of reduction of luciferase reporter activity (NFAT-luciferase, 10-hour ConA stimulation, LT8 1.5 µg/ml; clone NKIR#19) [3] [%]
1 | GL183 monoclonal antibody (Beckman Coulter) | 33.3 | – | – | –
2 | anti-CD8 antibody LT8 (Serotec, MCA1226XZ) | – | 16.6 | 21.2 | 30.2

Reference: patent US20070202501A1
